In paper PMC8539922, “Reconstitution of Caveolin-1 into Artificial Lipid Membrane: Characterization by Transmission Electron Microscopy and Solid-State Nuclear Magnetic Resonance” (Molecules, 2021):
Where no end group is shown, it is not given here.

Biological target: the molecule itself
Experiment: negative-stain TEM + thioflavin-T fluorescence; peptide dissolved in DMSO, diluted to 1 mg/mL in 20 mM Tris, pH 8.0, incubated at 37 °C for 48 h

B1: CAV1(168-178) peptide (peptide)
peptide: SNVRINLQKEI
modifications: not fully specified
notes: Caveolin-1, residues 168-178 of the α-isoform; The ends of the two caps as printed seem swapped (a rink amide resin gives a C-terminal amide; acetyl is usually N-terminal); also called CAV1 C-terminal peptide; CAV1 C-terminus; source: synthetic peptide (Fmoc solid phase, HPLC purified)
binding result: binds
